# Results: PMC8017197 (Frontiers in Immunology, 2021)
# B1: GST-fused UBZ domain (a.a. 394-446) of NDP52 (domain or fragment, human, UniProt Q13137 394-446, looked up)
# chain: IKKCPICKADDICDHTLEQQQMQPLCFNCPICDKIFPATEKQIFEDHVFCHSL
# notes: NDP52 (CALCOCO2), human, UBZ domain, a.a; Vector pGEX6p-1; also called GST-fused NDP52-UBZ domain; source: E. coli BL21 (DE3)pLysS, purified with a GSTrap column
# Target: T1, linear (M1)-tetraubiquitin (UniProt P0CG48 1-76; P0CG48 1-76; P0CG48 1-76; P0CG48 1-76)
# T1 construct: ubiquitin, first of four units joined head to tail (Met1-linked); ubiquitin, second unit; ubiquitin, third unit; ubiquitin, fourth unit; Four ubiquitins on one chain, N-terminal Met1 linked to the C-terminus of the unit before; also called linear (M1)-linked tetraubiquitin; source: bought: Boston Biochem
# Assay: pull-down; GST-fusion proteins with tetraubiquitin (3.4 μg), then glutathione Sepharose at 4°C 1 h; bound ubiquitin detected by anti-ubiquitin immunoblotting
# Conditions: both partners purified
# T1 sequence (P0CG48 1-304, one chain of several): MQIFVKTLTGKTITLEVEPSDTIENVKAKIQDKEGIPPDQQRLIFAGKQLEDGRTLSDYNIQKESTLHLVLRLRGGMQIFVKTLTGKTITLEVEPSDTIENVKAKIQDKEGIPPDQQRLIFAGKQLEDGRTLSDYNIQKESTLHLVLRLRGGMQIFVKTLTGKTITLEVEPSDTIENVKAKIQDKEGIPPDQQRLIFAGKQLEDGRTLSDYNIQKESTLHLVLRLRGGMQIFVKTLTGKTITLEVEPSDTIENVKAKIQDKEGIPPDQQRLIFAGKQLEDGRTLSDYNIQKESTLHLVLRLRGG
binder,measurement,value
B1,binding result,binds
